These results are taken from patent publication US20230416329A1 (INSTITUTE OF MATERIA MEDICA CHINESE ACADEMY OF MEDICAL …, published 2023).

Bridge positions count the residues as written; N and C are the ends. Ends that are not written are not given here.

The test concerns the target bovine trypsin (bovine, UniProt P00760 24-246). The test can be described thus: trypsin inhibition, BApNA substrate. The method, then: The substrates N-succinyl-Ala-Ala-Pro-Phe-p-nitroaniline (AAPFpNA), Nα—Benzoyl-L-arginine-4-nitroaniline hydrochloride (BApNA) and N-succinyl-[…] (AAApNA) are used in competitive binding reaction to determine the inhibitory activities against α-chymotrypsin, bovine trypsin, and porcine pancreatic elastase, respectively. Experiments for α-chymotrypsin and bovine trypsin inhibition were measured in 20 mM CaCl₂, 50 mM Tris-HCl buffer (pH 7.8), and that for porcine elastase inhibition was measured in 50 mM Tris-HCl buffer (pH 8.0). The concentration of the peptide was measured using optical density (OD) at 280 nm. The Michaelis constant (Kₘ) of the enzyme hydrolysis substrate is calculated from the initial rate of substrate hydrolysis at 405 nm. The absorbance value of the substrate was measured at 405 nm after complete hydrolysis. All data were processed using nonlinear regression.
(1) Added a total 190 μL of reaction buffer (20 mM CaCl₂ and 50 mM Tris-HCl, pH 7.8) along with different concentrations of anti-trypsin peptides (BTs) into the pre-cooled 96-well plate, followed by preheating at 37° C., and spined down at 500 rpm for 5 min. Next added 10 μL of 1 μM trypsin, incubated at 37° C., and then spined down at 500 rpm for 10 min. Finally, added 5 μL of 50 mM BApNA, and mixed by centrifugation at 500 rpm for 1 min. […] The experiment was performed in triplicate. The blank control only contained the reaction buffer and the substrate as the minimum absorption value (Min OD_{405 nm}). The negative control only contained the reaction buffer, the enzyme and the substrate as the maximum absorption value (Max OD_{405 nm}). […] (2) In the reaction system of 205 μL, the final concentrations of trypsin and BApNA were 50 nM and 1.22 mM, respectively. [0456] (3) Data statistics

bovine trypsin, sequence (P00760 24-246): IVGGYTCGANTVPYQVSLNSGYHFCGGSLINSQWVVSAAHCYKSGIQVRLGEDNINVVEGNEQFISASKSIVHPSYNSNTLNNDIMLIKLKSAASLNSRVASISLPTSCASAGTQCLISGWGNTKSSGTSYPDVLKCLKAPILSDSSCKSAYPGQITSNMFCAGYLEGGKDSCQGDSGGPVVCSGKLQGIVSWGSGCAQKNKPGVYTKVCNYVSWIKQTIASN

Usually IC50 stands for the point on the concentration scale where inhibition reaches its midpoint. Low readings indicate greater potency in that assay, high ones weaker potency in that assay. As usually defined, the Ki is the equilibrium dissociation constant of an inhibitor or competing ligand from its target. High values mean weaker binding, low ones tighter binding. CGRATKSIPPICFPD (disulfide 1-12 (inferred)) [BT5] had a 50% inhibitory concentration (IC50) of 160 nM and a Ki of 30 nM.
For CGAATKSIPPICFPD (disulfide 1-12 (inferred)) [BT7], in that order: 230 nM and 50 nM.
As for CGSATKSIPPICFPD (disulfide 1-12 (inferred)) [BT6], the IC50 is 290 nM and the affinity corresponds to a Ki of 60 nM.
For RCTRSIPPHCW (disulfide 2-10 (inferred)) [BT61], in that order: 890 nM and 190 nM.
The like results for CGRATKSIPPICF (disulfide 1-12 (inferred)) [BT9] were, in that order, 70 nM and 10 nM.
The molecule CQRATKSIPPICF (disulfide 1-12 (inferred)) [BT79] displayed a 50% inhibitory concentration (IC50) of 50 nM and a Ki of 10 nM.
For CGRATKSIPAICF (disulfide 1-12 (inferred)) [BT10], in that order: 110 nM and 20 nM.
For CGRATRAIPPICF (disulfide 1-12 (inferred)) [BT22], in that order: 4680 nM and 1000 nM.
For CGRPTKSIPPICF (disulfide 1-12 (inferred)) [BT59], in that order: 26300 nM and 5590 nM.
In the case of CGRFTKSIPPICF (disulfide 1-12 (inferred)) [BT52], the IC50 came to 130 nM and the Ki was 30 nM.
For CGRAAKSIPPICF (disulfide 1-12 (inferred)) [BT26], in that order: 2500 nM and 530 nM.
The like results for CVRATKSIPPICF (disulfide 1-12 (inferred)) [BT71] were, in that order, 110 nM and 20 nM.
For CERATKSIPPICF (disulfide 1-12 (inferred)) [BT78], in that order: 30 nM and 6.4 nM.
In turn, CGRHTKSIPPICF (disulfide 1-12 (inferred)) [BT56] gave an IC50 of 110 nM and a Ki of 20 nM.
On to CPRATKSIPPICF (disulfide 1-12 (inferred)) [BT66], for which the IC50 stood at 60 nM and the Ki is 10 nM.
The like results for CLRATKSIPPICF (disulfide 1-12 (inferred)) [BT72] were, in that order, 130 nM and 30 nM.
The like results for CIRATKSIPPICF (disulfide 1-12 (inferred)) [BT73] were, in that order, 120 nM and 30 nM.
For CGRYTKSIPPICF (disulfide 1-12 (inferred)) [BT53], in that order: 120 nM and 30 nM.
On to CGRVTKSIPPICF (disulfide 1-12 (inferred)) [BT51], for which the IC50 was 410 nM and the Ki worked out at 90 nM.
For CKRATKSIPPICF (disulfide 1-12 (inferred)) [BT77], in that order: 40 nM and 8.5 nM.
Molecule CGRQTKSIPPICF (disulfide 1-12 (inferred)) [BT54] returned an IC50 of 60 nM and a Ki of 10 nM.
Regarding CGRLTKSIPPICF (disulfide 1-12 (inferred)) [BT48], the IC50 was found to be 180 nM and the Ki was 40 nM.
For CGRATRSAPPICF (disulfide 1-12 (inferred)) [BT21], in that order: 18100 nM and 3850 nM.
The like results for CGRGTKSIPPICF (disulfide 1-12 (inferred)) [BT60] were, in that order, 430 nM and 90 nM.
The like results for CGRSTKSIPPICF (disulfide 1-12 (inferred)) [BT47] were, in that order, 50 nM and 10 nM.
CGRNTKSIPPICF (disulfide 1-12 (inferred)) [BT55] gave an IC50 of 300 nM and a Ki of 60 nM.
In the case of CGRATKSLPAICF (disulfide 1-12 (inferred)) [BT16], the IC50 came to 910 nM and the Ki stood at 190 nM.
Molecule CRRATKSIPPICF (disulfide 1-12 (inferred)) [BT76] came in with an IC50 of 50 nM and a Ki of 10 nM.
For CGRATRSIPPICA (disulfide 1-12 (inferred)) [BT19], in that order: 43400 nM and 9250 nM.
The like results for CGRETKSIPPICF (disulfide 1-12 (inferred)) [BT58] were, in that order, 120 nM and 30 nM.
The like results for CGRATRSIPPICY (disulfide 1-12 (inferred)) [BT18] were, in that order, 39400 nM and 8380 nM.
On to CGRITKSIPPICF (disulfide 1-12 (inferred)) [BT49], for which inhibition was half-maximal at 500 nM (IC50) and the Ki is 110 nM.
Molecule CGRWTKSIPPICF (disulfide 1-12 (inferred)) [BT57] registered an IC50 of 130 nM and a Ki of 30 nM.
Turning to CSRATKSIPPICF (disulfide 1-12 (inferred)) [BT75], the midpoint of inhibition, the IC50, lay at 40 nM and the Ki was 8.5 nM.
The like results for CARATKSIPPICF (disulfide 1-12 (inferred)) [BT67] were, in that order, 50 nM and 10 nM.
For the molecule CGRATRSIPPICF (disulfide 1-12 (inferred)) [BT17], the IC50 is 580 nM, affinity was put at a Ki of 120 nM and the “fold decrease in inhibitory activity compared to BT9” value is approximately 12 fold.
With CGRATKAIPPICF (disulfide 1-12 (inferred)) [BT27], 280 nM corresponded to half-maximal inhibition (IC50) and the affinity corresponds to a Ki of 60 nM.
For CGTATKSIPPICF (disulfide 1-12 (inferred)) [BT25], in that order: 970 nM and 210 nM.
For CGTATKSIPPICN (disulfide 1-12 (inferred)) [BT24], in that order: 33900 nM and 7220 nM.
In turn, CGRATRSIPPACF (disulfide 1-12 (inferred)) [BT15] gave an IC50 of 4490 nM and a Ki of 960 nM.
